PMC6769930, “Endoglin Protein Interactome Profiling Identifies TRIM21 and Galectin-3 as New Binding Partners” (Cells, 2019)

Key:
Experiment in all cases: peptide or protein array; ProtoArray human protein Microarray v5.0 (over 9000 human proteins arrayed) probed with recombinant sEng in two replicates; detection with anti-endoglin mAb SN6h and HRP secondary antibody; hits with Z-score >=2.0 in both arrays
Conditions in all cases: both partners purified
[1] = molecular target: RNA polymerase-associated protein RTF1 homolog (RTF1) (human, UniProt Q92541 1-710)
[2] = molecular target: T1, Cell cycle associated protein 1 (CAPRIN1), transcript variant 1 (human, UniProt Q14444-1 1-709)
T1 construct: human CAPRIN1, transcript variant 1; source: bought: ProtoArray human protein Microarray v5.0 (Life Technologies), individually purified and arrayed
T1 sequence (looked up): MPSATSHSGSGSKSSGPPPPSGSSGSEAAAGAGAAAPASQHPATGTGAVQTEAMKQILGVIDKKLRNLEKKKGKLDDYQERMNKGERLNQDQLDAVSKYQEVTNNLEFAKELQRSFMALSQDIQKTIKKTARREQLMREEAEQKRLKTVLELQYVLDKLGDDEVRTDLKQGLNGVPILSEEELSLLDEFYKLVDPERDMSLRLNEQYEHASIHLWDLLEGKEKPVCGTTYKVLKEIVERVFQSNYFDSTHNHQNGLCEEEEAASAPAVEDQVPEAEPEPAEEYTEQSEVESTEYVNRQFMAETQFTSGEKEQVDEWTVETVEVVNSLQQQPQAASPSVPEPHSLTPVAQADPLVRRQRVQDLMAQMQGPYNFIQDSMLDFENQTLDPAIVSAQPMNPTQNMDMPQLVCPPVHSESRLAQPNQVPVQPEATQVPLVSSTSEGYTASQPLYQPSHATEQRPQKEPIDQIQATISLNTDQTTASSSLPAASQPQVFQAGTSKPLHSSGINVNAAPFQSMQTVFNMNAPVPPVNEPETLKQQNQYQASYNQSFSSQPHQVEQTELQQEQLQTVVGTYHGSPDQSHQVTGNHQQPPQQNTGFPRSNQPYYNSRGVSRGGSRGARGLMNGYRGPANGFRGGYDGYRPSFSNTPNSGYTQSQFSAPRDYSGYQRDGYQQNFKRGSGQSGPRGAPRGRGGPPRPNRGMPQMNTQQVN

[3] = molecular target: T2, Lamin A/C (LMNA), transcript variant 2 (human, UniProt P02545-2 1-572)
T2 construct: source: bought: ProtoArray human protein Microarray v5.0 (Life Technologies), individually purified and arrayed
T2 sequence (looked up): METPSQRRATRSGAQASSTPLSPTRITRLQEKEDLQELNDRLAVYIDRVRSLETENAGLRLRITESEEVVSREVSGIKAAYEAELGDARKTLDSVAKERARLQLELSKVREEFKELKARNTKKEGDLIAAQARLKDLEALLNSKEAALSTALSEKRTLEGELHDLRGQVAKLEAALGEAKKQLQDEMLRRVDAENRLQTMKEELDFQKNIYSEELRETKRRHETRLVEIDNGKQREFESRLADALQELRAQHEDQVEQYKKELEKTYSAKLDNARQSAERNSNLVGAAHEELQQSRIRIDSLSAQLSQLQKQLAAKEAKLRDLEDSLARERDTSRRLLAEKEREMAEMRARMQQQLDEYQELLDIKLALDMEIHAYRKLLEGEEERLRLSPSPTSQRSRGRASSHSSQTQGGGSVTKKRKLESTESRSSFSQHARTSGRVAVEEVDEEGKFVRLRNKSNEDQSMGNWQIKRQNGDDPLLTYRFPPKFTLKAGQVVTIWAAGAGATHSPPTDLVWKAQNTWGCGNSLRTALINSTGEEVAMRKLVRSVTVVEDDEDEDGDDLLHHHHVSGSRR

[4] = molecular target: T3, YTH domain family, member 2 (YTHDF2) (human, UniProt Q9Y5A9 1-579)
T3 construct: human YTHDF2; source: bought: ProtoArray human protein Microarray v5.0 (Life Technologies), individually purified and arrayed
T3 sequence (looked up): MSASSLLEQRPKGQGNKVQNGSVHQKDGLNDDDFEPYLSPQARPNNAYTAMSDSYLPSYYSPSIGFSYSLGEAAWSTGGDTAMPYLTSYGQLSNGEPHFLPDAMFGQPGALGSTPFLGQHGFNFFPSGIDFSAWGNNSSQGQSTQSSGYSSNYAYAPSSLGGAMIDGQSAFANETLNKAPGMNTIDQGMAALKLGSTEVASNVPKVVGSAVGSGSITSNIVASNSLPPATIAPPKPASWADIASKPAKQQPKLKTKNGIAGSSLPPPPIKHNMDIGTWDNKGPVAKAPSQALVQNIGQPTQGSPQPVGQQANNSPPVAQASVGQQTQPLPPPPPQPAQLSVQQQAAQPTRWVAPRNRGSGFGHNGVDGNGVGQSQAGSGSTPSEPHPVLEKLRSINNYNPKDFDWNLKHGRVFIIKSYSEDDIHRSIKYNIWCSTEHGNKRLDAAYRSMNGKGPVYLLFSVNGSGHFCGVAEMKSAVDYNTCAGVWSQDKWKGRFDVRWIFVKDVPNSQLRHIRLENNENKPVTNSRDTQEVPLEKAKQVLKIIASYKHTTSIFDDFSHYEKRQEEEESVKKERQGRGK

Measured: binding result

B1: recombinant human soluble endoglin (sEng; Glu26-Gly586) (domain or fragment, UniProt P17813 26-586, looked up)
chain: ETVHCDLQPVGPERGEVTYTTSQVSKGCVAQAPNAILEVHVLFLEFPTGPSQLELTLQASKQNGTWPREVLLVLSVNSSVFLHLQALGIPLHLAYNSSLVTFQEPPGVNTTELPSFPKTQILEWAAERGPITSAAELNDPQSILLRLGQAQGSLSFCMLEASQDMGRTLEWRPRTPALVRGCHLEGVAGHKEAHILRVLPGHSAGPRTVTVKVELSCAPGDLDAVLILQGPPYVSWLIDANHNMQIWTTGEYSFKIFPEKNIRGFKLPDTPQGLLGEARMLNASIVASFVELPLASIVSLHASSCGGRLQTSPAPIQTTPPKDTCSPELLMSLIQTKCADDAMTLVLKKELVAHLKCTITGLTFWDPSCEAEDRGDKFVLRSAYSSCGMQVSASMISNEAVVNILSSSSPQRKKVHCLNMDSLSFQLGLYLSPHFLQASNTIEPGQQSFVQVRVSPSVSEFLLQLDSCHLDLGPEGGTVELIQGRAAKGNCVSLLSPSPEGDPRFSFLLHFYTVPIPKTGTLSCTVALRPKTGSQDQEVHRTVFMRLNIISPDLSGCTSKG
notes: human endoglin (CD105), extracellular domain, Glu26-Gly586; The same bought protein was the probe of the array and the analyte of the BLI; also called recombinant human endoglin/CD105 protein; source: bought: R&D Systems (1097-EN), purified recombinant
binds: [1] | [2] | [3] | [4]
